Test results published in patent US20240327526A1.
Substitutions are numbered along the chain they refer to. Values belong to the binder of their own block, whether it stands above or below them.

Legend:
ActRIIB-huFc (human) [1] = assay: KinExA
ActRIIB-huFc (human) [2] = assay: BIAcore
ActRIIB-huFc (human) [3] = assay: binding affinity, method not stated

Sequence of ActRIIB-huFc (human) (chain, as listed by the source limits assumed, form in doubt): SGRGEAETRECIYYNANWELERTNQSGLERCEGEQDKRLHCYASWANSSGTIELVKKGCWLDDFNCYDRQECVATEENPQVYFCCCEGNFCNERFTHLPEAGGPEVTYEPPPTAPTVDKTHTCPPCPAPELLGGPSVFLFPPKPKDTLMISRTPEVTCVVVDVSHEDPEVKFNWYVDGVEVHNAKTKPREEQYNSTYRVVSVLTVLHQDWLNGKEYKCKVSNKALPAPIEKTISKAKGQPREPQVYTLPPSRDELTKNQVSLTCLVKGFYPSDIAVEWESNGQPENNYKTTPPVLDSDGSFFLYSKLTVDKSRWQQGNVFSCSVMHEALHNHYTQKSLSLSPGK

Kd (ActRIIB-huFc (human) [1]): < 1 pM
fold improvement of affinity over the parental molecule R31-1 (ActRIIB-huFc (human) [1]): 10 fold
Kd (ActRIIB-huFc (human) [2]): 1 pM
B1: M43 (antibody, human IgG2, lambda, V domains shown)
VH: EVQLLESGGGLVQPGGSLRLSCAASGFTFRNSAMSWVRQAPGKGLEWVSGISVTGGSTFYTDSVKGRFTVSRDNSRNTLYLQMNSLRAEDTAVYYCAKVYYYSFFDYWGQGTLVTVSS
VL: QTVVTQEPSFSVSPGGTVTLTCGFNSGSVSTSYWPSWYQQTPGQAPRTLIYNTNTRSSGVPDRFSGSILGNKAALTITGAQADDESDYYCVLWMGSGIWVFGGGTKLTVLG

Kd (ActRIIB-huFc (human) [2]): 10 pM
Kd (ActRIIB-huFc (human) [3]): < 10 pM
B2: Anti-ActRIIB human IgG R31-1 (antibody, V domains shown)
VH: B1 VH with S32Y, F59Y, Y102S
VL: B1 VL with W34Y, W93Y
